# In patent publication US20150037277A1:
# Key:
# Experiment in all cases: ELISA, plate coated with OVA-peptide conjugate, adjuvant-only control egg antibody, dilution not stated
# [1] = target: IL-10 Peptide #3 (SEQ ID NO: 4) conjugated to hen ovalbumin (Chicken, quail, turkey; hen) (UniProt P01012)
# [2] = target: IL-10 Peptide #4 (SEQ ID NO: 5) conjugated to hen ovalbumin (Chicken, quail, turkey; hen) (UniProt P01012)
# [3] = target: IL-10 Peptide #1 (SEQ ID NO: 1) conjugated to hen ovalbumin (Chicken, quail, turkey; hen) (UniProt P01012)
substance,measurement,setting,value
adjuvant only injected control egg antibody,optical density,[1],0.499 OD at 450 nm
same,optical density,[2],0.6 OD at 450 nm
same,optical density,[3],0.562 OD at 450 nm
